Reference: US20120316071A1 (published 2012)

How the values were obtained:
[1] = biological target: T1, rHuman ErbB2/Fc Chimera, CF (R&D Systems Cat#1129-ER) (human, UniProt P04626 23-652); assay: ECL multispot (MSD) assay, antigen spotted on plate; blank spot of this row 278
T1 construct: Bought recombinant protein; also called human epidermal growth factor 2 receptor; Fc part of the bought chimera not given

[2] = biological target: T2, rHuman EGF R/Fc Chimera, CF (R&D Systems Cat#344-ER) (human, UniProt P00533 25-645); assay: as above
T2 construct: Bought recombinant protein; also called epidermal growth factor receptor; Fc part of the bought chimera not given

[3] = biological target: T3, rHuman HGF R/c-MET/Fc Chimera, CF (R&D Systems Cat#358-MT/CF) (human, UniProt P08581 25-932); assay: as above
T3 construct: Bought recombinant protein; also called HGF R/Fc; hepatocyte growth factor receptor; Fc part of the bought chimera not given

[4] = biological target: T4, rHuman Notch-1/Fc Chimera, CF (R&D Systems Cat#3647-TK) (human, UniProt P46531 19-526); assay: as above
T4 construct: Bought recombinant protein; Fc part of the bought chimera not given

[5] = biological target: T5, rHuman CD44/Fc Chimera, CF (R&D Systems Cat#3660-CD) (human, UniProt P16070 21-220); assay: as above
T5 construct: Bought recombinant protein; Fc part of the bought chimera not given

[6] = biological target: T6, rHuman IGF-1 sR, (IGF-1 sR), CF (R&D Systems Cat#391-GR) (human, UniProt P08069 31-932); assay: as above
T6 construct: Bought recombinant soluble receptor; also called insulin-like growth factor-1 soluble receptor

[7] = biological target: T7, rHuman P-Cadherin/Fc Chimera, CF (R&D Systems Cat#861-PC) (human, UniProt P22223 108-654); assay: as above
T7 construct: Bought recombinant protein; Fc part of the bought chimera not given

[8] = biological target: T8, rHuman Erythropoietin R/Fc Chimera, CF (R&D Systems Cat#963-ER) (human, UniProt P19235 25-250); assay: as above
T8 construct: Bought recombinant protein; also called EPO R; EPO R/Fc; Fc part of the bought chimera not given
T8 sequence (looked up): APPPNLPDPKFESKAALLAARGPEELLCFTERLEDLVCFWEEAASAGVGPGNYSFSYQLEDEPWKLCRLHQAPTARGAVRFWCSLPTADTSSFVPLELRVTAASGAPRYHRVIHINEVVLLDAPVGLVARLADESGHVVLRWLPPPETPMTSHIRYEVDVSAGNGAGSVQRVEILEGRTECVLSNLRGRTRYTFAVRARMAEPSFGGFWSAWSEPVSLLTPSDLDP

[9] = biological target: T9, Recombinant Human DLL4 (R&D Systems Cat#1506-D4/CF) (human, UniProt Q9NR61 27-524); assay: as above
T9 construct: Bought recombinant protein; also called delta-like protein 4; rHuman DLL4

[10] = biological target: T1, rHuman ErbB2/Fc Chimera, CF (R&D …); assay: ECL multispot (MSD) assay, antigen spotted on plate; blank spot of this row 392
[11] = biological target: T2, rHuman EGF R/Fc Chimera, CF (R&D …); assay: as above
[12] = biological target: T3, rHuman HGF R/c-MET/Fc Chimera, CF (R&D …); assay: as above
[13] = biological target: T4, rHuman Notch-1/Fc Chimera, CF (R&D …); assay: as above
[14] = biological target: T5, rHuman CD44/Fc Chimera, CF (R&D Systems …); assay: as above
[15] = biological target: T6, rHuman IGF-1 sR, (IGF-1 sR), CF (R&D …); assay: as above
[16] = biological target: T7, rHuman P-Cadherin/Fc Chimera, CF (R&D …); assay: as above
[17] = biological target: T8, rHuman Erythropoietin R/Fc Chimera, CF …; assay: as above
[18] = biological target: T9, Recombinant Human DLL4 (R&D Systems …); assay: as above
[19] = biological target: T1, rHuman ErbB2/Fc Chimera, CF (R&D …); assay: ECL multispot (MSD) assay, antigen spotted on plate; blank spot
[20] = biological target: T2, rHuman EGF R/Fc Chimera, CF (R&D …); assay: as above
[21] = biological target: T3, rHuman HGF R/c-MET/Fc Chimera, CF (R&D …); assay: as above
[22] = biological target: T4, rHuman Notch-1/Fc Chimera, CF (R&D …); assay: as above
[23] = biological target: T5, rHuman CD44/Fc Chimera, CF (R&D Systems …); assay: as above
[24] = biological target: T6, rHuman IGF-1 sR, (IGF-1 sR), CF (R&D …); assay: as above
[25] = biological target: T7, rHuman P-Cadherin/Fc Chimera, CF (R&D …); assay: as above
[26] = biological target: T8, rHuman Erythropoietin R/Fc Chimera, CF …; assay: as above
[27] = biological target: T9, Recombinant Human DLL4 (R&D Systems …); assay: as above

T3 sequence (P08581 25-932, change not shown): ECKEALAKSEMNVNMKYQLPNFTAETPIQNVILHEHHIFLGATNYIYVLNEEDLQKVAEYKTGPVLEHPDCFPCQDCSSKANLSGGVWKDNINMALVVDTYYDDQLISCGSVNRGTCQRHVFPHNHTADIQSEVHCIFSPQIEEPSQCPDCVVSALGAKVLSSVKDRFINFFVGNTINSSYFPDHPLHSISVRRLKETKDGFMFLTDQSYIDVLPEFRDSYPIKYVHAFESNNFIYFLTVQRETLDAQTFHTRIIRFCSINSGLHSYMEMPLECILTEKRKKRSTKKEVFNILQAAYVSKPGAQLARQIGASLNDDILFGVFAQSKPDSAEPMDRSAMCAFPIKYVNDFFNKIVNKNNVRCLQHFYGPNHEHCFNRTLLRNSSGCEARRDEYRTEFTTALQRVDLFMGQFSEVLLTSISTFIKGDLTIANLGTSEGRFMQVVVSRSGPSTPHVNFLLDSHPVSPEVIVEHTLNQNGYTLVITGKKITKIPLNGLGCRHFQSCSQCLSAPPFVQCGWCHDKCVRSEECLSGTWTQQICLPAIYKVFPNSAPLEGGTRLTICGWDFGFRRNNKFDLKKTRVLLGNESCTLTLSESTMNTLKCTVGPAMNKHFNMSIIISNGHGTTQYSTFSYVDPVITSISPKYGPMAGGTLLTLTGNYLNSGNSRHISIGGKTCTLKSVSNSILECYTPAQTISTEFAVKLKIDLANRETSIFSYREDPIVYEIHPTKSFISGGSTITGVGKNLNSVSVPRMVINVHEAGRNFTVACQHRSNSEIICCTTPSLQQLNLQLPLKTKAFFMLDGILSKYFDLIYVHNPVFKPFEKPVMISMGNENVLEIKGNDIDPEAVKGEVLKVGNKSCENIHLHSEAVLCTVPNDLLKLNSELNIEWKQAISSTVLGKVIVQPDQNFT

B1: Fab VH1-46_IGHD6-6*01_IGHJ1*01 S102A/S103P/S104F/H111F (APFF) & L6_IGKJ1*01 S30R (Fab, V domains shown)
VH: QVQLVQSGAEVKKPGASVKVSCKASGYTFTSYYMHWVRQAPGQGLEWMGIINPSGGSTSYAQKFQGRVTMTRDTSTSTVYMELSSLRSEDTAVYYCAREEYAPFSAEYFQFWGQGTLVTVSS
VL: EIVLTQSPATLSLSPGERATLSCRASQSVRSYLAWYQQKPGQAPRLLIYDASNRATGIPARFSGSGSGTDFTLTISSLEPEDFAVYYCQQRSNWPPWTFGQGTKVEIKR
notes: Fab made in E. coli: VH cloned into Plasmid A (CH1, His6 and Flag tags), kappa VL into Plasmid C (kappa CL); also called APFF / S30R
ECL signal [1]: 404 | ECL signal [2]: 395 | ECL signal [3]: 452 | ECL signal [4]: 313 | ECL signal [5]: 472 | ECL signal [6]: 422 | ECL signal [7]: 442 | ECL signal [8]: 525 | ECL signal [9]: 189000

B2: Fab VH1-46_IGHD6-6*01_IGHJ1*01 S102A/S103P/S104F/H111F (APFF) & L6_IGKJ1*01 S30T (Fab, V domains shown)
VH: QVQLVQSGAEVKKPGASVKVSCKASGYTFTSYYMHWVRQAPGQGLEWMGIINPSGGSTSYAQKFQGRVTMTRDTSTSTVYMELSSLRSEDTAVYYCAREEYAPFSAEYFQFWGQGTLVTVSS
VL: EIVLTQSPATLSLSPGERATLSCRASQSVTSYLAWYQQKPGQAPRLLIYDASNRATGIPARFSGSGSGTDFTLTISSLEPEDFAVYYCQQRSNWPPWTFGQGTKVEIKR
notes: Fab made in E. coli: VH cloned into Plasmid A (CH1, His6 and Flag tags), kappa VL into Plasmid C (kappa CL); also called APFF / S30T
ECL signal [10]: 269 | ECL signal [11]: 383 | ECL signal [12]: 320 | ECL signal [13]: 375 | ECL signal [14]: 521 | ECL signal [15]: 401 | ECL signal [16]: 418 | ECL signal [17]: 470 | ECL signal [18]: 136000

B3: Fab VH1-46_IGHD6-6*01_IGHJ1*01 S102A/S103P/S104F/H111F (APFF) & L6_IGKJ1*01 S30V (Fab, V domains shown)
VH: QVQLVQSGAEVKKPGASVKVSCKASGYTFTSYYMHWVRQAPGQGLEWMGIINPSGGSTSYAQKFQGRVTMTRDTSTSTVYMELSSLRSEDTAVYYCAREEYAPFSAEYFQFWGQGTLVTVSS
VL: EIVLTQSPATLSLSPGERATLSCRASQSVVSYLAWYQQKPGQAPRLLIYDASNRATGIPARFSGSGSGTDFTLTISSLEPEDFAVYYCQQRSNWPPWTFGQGTKVEIKR
notes: Fab made in E. coli: VH cloned into Plasmid A (CH1, His6 and Flag tags), kappa VL into Plasmid C (kappa CL); also called APFF / S30V
ECL signal [19]: 279 | ECL signal [20]: 412 | ECL signal [21]: 394 | ECL signal [22]: 294 | ECL signal [23]: 375 | ECL signal [24]: 365 | ECL signal [25]: 333 | ECL signal [26]: 536 | ECL signal [27]: 141000
